Assay [1] deals with AD-PHF Tau (paired helical filament Tau isolated from Alzheimer's disease brains) (human (endogenous in AD brain)).
The target is the same in assay [2]. In words: SPR; AD-PHF fraction 11 amine-coupled to a CM5 chip (about 500 RU); full-length IgG 1-300 nM as analyte, 180 s injection, 1200 s dissociation; BIAcore T200, 25 °C; HBS-EP+ with additional 150 mM NaCl and 1.25% CM-Dextran; extrinsic affinity; 1:1 binding or bivalent analyte model. (SPR reads the build-up and loss of mass on a sensor chip optically.)

Sequence of AD-PHF Tau (paired helical filament Tau isolated from Alzheimer's disease brains) (human (endogenous in AD brain)) (P10636 2-758): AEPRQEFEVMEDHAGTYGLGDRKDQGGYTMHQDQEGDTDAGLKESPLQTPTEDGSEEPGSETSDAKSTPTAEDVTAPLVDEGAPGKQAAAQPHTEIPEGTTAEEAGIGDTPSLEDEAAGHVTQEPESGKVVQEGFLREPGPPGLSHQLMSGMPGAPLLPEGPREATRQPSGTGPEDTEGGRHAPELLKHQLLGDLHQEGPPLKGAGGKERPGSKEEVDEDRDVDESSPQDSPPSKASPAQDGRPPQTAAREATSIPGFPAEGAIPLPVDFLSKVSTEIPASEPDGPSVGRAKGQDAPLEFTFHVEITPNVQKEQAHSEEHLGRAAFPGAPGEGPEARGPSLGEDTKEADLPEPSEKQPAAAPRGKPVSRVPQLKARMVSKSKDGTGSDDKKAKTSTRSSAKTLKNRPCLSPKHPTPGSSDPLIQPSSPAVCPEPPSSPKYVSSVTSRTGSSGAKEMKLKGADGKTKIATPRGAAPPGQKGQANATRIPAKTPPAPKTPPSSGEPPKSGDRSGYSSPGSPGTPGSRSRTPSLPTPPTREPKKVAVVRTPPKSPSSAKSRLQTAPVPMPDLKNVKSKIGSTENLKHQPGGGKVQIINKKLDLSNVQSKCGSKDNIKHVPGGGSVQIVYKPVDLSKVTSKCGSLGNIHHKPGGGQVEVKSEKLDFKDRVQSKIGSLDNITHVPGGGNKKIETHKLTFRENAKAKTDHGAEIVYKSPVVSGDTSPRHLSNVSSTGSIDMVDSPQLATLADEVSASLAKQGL

B1: antibody B (antibody, V domains shown)
VH: EVKVEESGGGLVQPGGSMKLSCVVSGFTFSNYWVNWVRQSPEKGLEWVAQIRLKSDNYATHYEESVKGRFTISRDDSKSSVYLQMNNLRAEDSGIYYCTNWEDYWGQGTTLTVSS
VL: DIVLTQSPASLAVSLGQRATISCRASQSVSTSRYSYIHWYQQKPGQPPKLLIKYASNLESGVPARFSGSGSGTDFTLNIHPLEEEDAATYYCHHSWEIPLTFGAGTKLELK
As usually defined, the koff is the rate constant with which the complex falls apart. Read a low koff as slow dissociation. As a reminder, the kon is a measure of how fast the partners come together. Read a low kon as slower complex formation. Turning to B1, in assay [1], the neutralisation of AD-PHF Tau seeding of HEK293 cells expressing P301S Tau (TR-FRET of aggregated Tau), antibody 0.1 to 300 nM; effect only at the highest doses turned out to be 74%. In assay [2], this molecule showed a Kd of 3.1 nM, a koff of 0.000117 s⁻¹ and a kon of 40000 M⁻¹ s⁻¹.

B2: antibody A (antibody, V domains shown)
VH: EVHLVESGGALVKPGGSLKLSCAASGFSFSKYGMSWVRQTPDKRLEWVATISSSGSRTYYPDSVKGQFTISRDNAKNTLYLQMSSLKSEDTAMYYCSISWDGAMDYWGQGTSVTVSS
VL: DVLMTQTPLSLPVSLGDQASISCKSSQSIVHSNGNTYLEWYLQKPGQSPKLLVYKVSNRFSGVPDRFSGSGSGTDFTLKISRVEAEDLGTYYCFQGSLVPWAFGGGTKLEIK
In assay [2], B2 registered a Kd of 0.12 nM, a koff of 2.5e-05 s⁻¹ and a kon of 230000 M⁻¹ s⁻¹.

B3: antibody F (antibody, V domains shown)
VH: EVQLVQSGAEVKKPGESLKISCKGSGYTFSNYWIEWVRQMPGKGLEWMGEILPGSDSIKYEKNFKGQVTISADKSISTAYLQWSSLKASDTAMYYCARRGNYVDDWGQGTLVTVSS
VL: EIVLTQSPGTLSLSPGERATLSCRSSQSLVHSNQNTYLHWYQQKPGQAPRLLIYKVDNRFSGIPDRFSGSGSGTDFTLTISRLEPEDFAVYYCSQSTLVPLTFGGGTKVEIK
Turning to B3, in assay [2], the Kd stood at 25.8 nM, the koff was found to be 0.00196 s⁻¹ and the kon was 730000 M⁻¹ s⁻¹.

The values above are taken from paper PMC6208734.
